From PMC10967716

Legend:
Assay in all cases: SEC
[1] = target: α-Methylacyl-CoA racemase from Mycobacterium tuberculosis, D156A mutant (M. tuberculosis) (UniProt O06543)
[2] = target: α-Methylacyl-CoA racemase from Mycobacterium tuberculosis, E241A mutant (M. tuberculosis) (UniProt O06543)
[3] = target: α-Methylacyl-CoA racemase from Mycobacterium tuberculosis, H126A mutant (M. tuberculosis) (UniProt O06543)

Question: How did the stoichiometry N [1] turn out when “α-Methylacyl-CoA racemase from Mycobacterium tuberculosis, D156A mutant (from UniProt O06543 1-360) (enzyme)” was run?
Answer: 2

Question: With “α-Methylacyl-CoA racemase from Mycobacterium tuberculosis, E241A mutant (from UniProt O06543 1-360) (enzyme)” as the substance, how does the stoichiometry N [2] read?
Answer: 2

Question: For “α-Methylacyl-CoA racemase from Mycobacterium tuberculosis, H126A mutant (from UniProt O06543 1-360) (enzyme)”, which stoichiometry N [3] is on record?
Answer: 2
